Measurements as given in US20200299331A1.
Bridge positions count the residues as written; N and C are the ends.

Target: TNF receptor (human)
Experiment: cell-based or functional assay

concentration of IL-6 (pg/ml, n = 5) released from fresh human whole blood, AP301 at 1 ng/ml: < 0.5 pg/mL | concentration of IL-6 (pg/ml, n = 5) released from fresh human whole blood, AP301 at 3 ng/ml: < 0.5 pg/mL | concentration of IL-6 (pg/ml, n = 5) released from fresh human whole blood, AP301 at 1 mg/ml as printed: < 0.5 pg/mL | concentration of IL-6 (pg/ml, n = 5) released from fresh human whole blood, AP301 at 10 mg/ml as printed: < 0.5 pg/mL
B1: AP301 peptide (peptide)
peptide: H-CGQRETPEGAEAKPWYC-OH
modifications: bridge 1-17; also: cyclized via the Cys residues, disulfide given as preferred, bond type of batch not given here
